Laboratory results as given in patent publication US10266566 (NORTH CAROLINA STATE UNIVERSITY, dated 2019).
*1 amine or outer side, *2 acyl side, *3 side chain or, on linkers, in order; H or OH if unused. Where no end group is shown, it is not given here. [ ]: non-standard residue; d: D form. Tyr(Me) = O-methyl-tyrosine, COc1ccc(C[C@H](N[*:1])C(=O)[*:2])cc1; Trp(1-Me) = Cn1cc(C[C@H](N)C(=O)O)c2ccccc21; Phe(4-Me) = Cc1ccc(C[C@H](N)C(=O)O)cc1; Lys(Me2) = CN(C)CCCC[C@H](N)C(=O)O; Cit = NC(=O)NCCC[C@H](N)C(=O)O

B1: HFRRHL (peptide)
peptide: HFRRHL-{Toyopearl AF‑Amino‑650M resin}
notes: Synthetic hexapeptide on Toyopearl resin; also called HFRRHL-Toyopearl
B2: HYMetFMetKMet2FMetD (peptide)
peptide: H[Tyr(Me)][Phe(4-Me)][Lys(Me2)][Phe(4-Me)]D-{Toyopearl AF‑Amino‑650M resin}
notes: Variant of HYFKFD on Toyopearl resin, used as a negative control; also called HYMetFMetK(Met)2FMetD-Toyopearl
B3: HWRGWV (peptide)
peptide: HWRGWV-{Toyopearl AF‑Amino‑650M resin}
modifications: not fully specified
notes: Synthetic hexapeptide made directly on Toyopearl AF-Amino-650M resin after a first Fmoc-Ala-OH coupling, about 0.12 meq/g; also called HWRGWV-Toyopearl; original peptide ligand
B4: HFMetCitCitHL (peptide)
peptide: H[Phe(4-Me)][Cit][Cit]HL-{Toyopearl AF‑Amino‑650M resin}
notes: Variant of HFRRHL on Toyopearl resin; also called HFMetCitCitHL-Toyopearl
B5: HWMetCitGWMetV (peptide)
peptide: H[Trp(1-Me)][Cit]G[Trp(1-Me)]V-{Toyopearl AF‑Amino‑650M resin}
notes: Variant of HWRGWV on Toyopearl resin; also called HWMetCitGWMetV-Toyopearl
B6: HYFKFD (peptide)
peptide: HYFKFD-{Toyopearl AF‑Amino‑650M resin}
notes: Synthetic hexapeptide on Toyopearl resin; also called HYFKFD-Toyopearl
B7: Ac-HWMetCitGWMetV (peptide)
peptide: Ac-H[Trp(1-Me)][Cit]G[Trp(1-Me)]V-{Toyopearl AF‑Amino‑650M resin}
notes: Acetylated HWMetCitGWMetV on Toyopearl resin; also called Ac-HWMetCitGWMetV-Toyopearl

Assays:
[1] = target: T1, Human polyclonal immunoglobulin G (IgG) (human); experiment: affinity chromatography of Cohn fraction II+III of human plasma on peptide resin; binding PBS + 0.25M NaCl, elution acetate pH 5.0; yield by Protein G chromatography
T1 construct: also called hIgG; IVIG
Method: (§1) Toyopearl AF-rProtein A-650F resin was used as a positive control. As per manufacturer's instructions, the chromatographic protocol comprised binding with PBS, pH 7.4 (at a flow rate of 0.05 mL/min) and elution with 0.1M Glycine buffer pH 2.5 (at a flow rate of 0.4 mL/min). […] Fractions were collected and used for analysis of IgG purity and yield as described below.
The original peptide ligands were employed as positive controls. The crude stock of Cohn II+III paste was diluted in PBS to prepare the feed sample and solid particles were removed by filtration prior to injection into the column.

[2] = target: T1, Human polyclonal immunoglobulin G (IgG); experiment: affinity chromatography, peptide resin, 10 mg/mL hIgG in PBS; 3rd run, after alpha-chymotrypsin and then trypsin
Method: (§2) One hundred microliters of feed sample was loaded onto the column at a flow rate of 0.05 mL/min (87 cm/h).
(§3) Each adsorbent was subjected to five consecutive chromatographic runs. First, a solution of pure human polyclonal IgG at 10 mg/mL in PBS was injected to determine IgG yield for each adsorbent prior to contact with any enzyme. […] The resin was then contacted with a solution of α-chymotrypsin in Tris buffer pH 8.5 for 10 minutes. The amount of enzyme loaded onto the column was in a mass ratio of 1:100 peptide:enzyme, as done by Verdoliva et al. [35]. After rinsing the resin, a second injection of IgG was then performed to estimate the loss of binding capacity due to the digestion of the peptide ligand by α-chymotrypsin. The resin was then contacted with the second enzyme solution, i.e., trypsin in Tris buffer pH 8.5, at the same peptide:enzyme ratio. A third IgG injection was finally performed to estimate the residual binding capacity of each resin after the second enzyme treatment.

[3] = target: T2, albumin (human, UniProt P02768 25-609); experiment: SDS-PAGE of fractions eluted from peptide resin loaded with Cohn fraction II+III
T2 construct: Impurity in the Cohn fraction II+III feed, seen on SDS-PAGE of the eluted fractions
T2 sequence (P02768 25-609 limits assumed): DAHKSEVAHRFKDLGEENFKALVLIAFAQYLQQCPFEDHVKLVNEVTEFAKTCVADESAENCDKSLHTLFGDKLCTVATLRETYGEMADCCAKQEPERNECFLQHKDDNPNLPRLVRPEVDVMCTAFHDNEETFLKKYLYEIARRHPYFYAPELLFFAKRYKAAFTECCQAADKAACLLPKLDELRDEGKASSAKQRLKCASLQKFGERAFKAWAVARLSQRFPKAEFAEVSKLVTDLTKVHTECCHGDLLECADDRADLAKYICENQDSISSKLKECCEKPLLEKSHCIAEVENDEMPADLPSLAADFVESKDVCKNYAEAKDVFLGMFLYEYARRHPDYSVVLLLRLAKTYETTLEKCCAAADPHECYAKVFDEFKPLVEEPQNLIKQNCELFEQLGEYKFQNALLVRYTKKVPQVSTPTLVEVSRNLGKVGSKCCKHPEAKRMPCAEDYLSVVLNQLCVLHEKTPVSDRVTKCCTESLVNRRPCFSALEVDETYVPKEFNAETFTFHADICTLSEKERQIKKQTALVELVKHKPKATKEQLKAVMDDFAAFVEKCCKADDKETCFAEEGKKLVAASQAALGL
Method: Each peptide resin was packed and swollen as described before. […] Toyopearl AF-rProtein A-650F resin was used as a positive control. As per manufacturer's instructions, the chromatographic protocol comprised binding with PBS, pH 7.4 (at a flow rate of 0.05 mL/min) and elution with 0.1M Glycine buffer pH 2.5 (at a flow rate of 0.4 mL/min). […] Fractions were collected and used for analysis of IgG purity and yield as described below.
The original peptide ligands were employed as positive controls. The crude stock of Cohn II+III paste was diluted in PBS to prepare the feed sample and solid particles were removed by filtration prior to injection into the column. […] Fractions were collected and analyzed by Protein G chromatography and SDS-PAGE (FIG. 3) to determine IgG yield and purity respectively.

[4] = target: T1, Human polyclonal immunoglobulin G (IgG); experiment: affinity chromatography, peptide resin, 10 mg/mL hIgG in PBS; 2nd run, after resin contacted with alpha-chymotrypsin
Method: as §2, §3

[5] = target: T1, Human polyclonal immunoglobulin G (IgG); experiment: affinity chromatography, peptide resin, 10 mg/mL hIgG in PBS; 1st run, before any enzyme
Method: as §2, §3

[6] = target: T1, Human polyclonal immunoglobulin G (IgG); experiment: affinity chromatography, peptide on Toyopearl resin, pure human IgG load; yield = IgG eluted/IgG loaded, by Protein G chromatography
Method: Each adsorbent thus obtained was packed into a chromatographic column (0.1 mL) and tested for IgG binding. Flowthrough and elution fractions were collected and analyzed by Protein G chromatography to determine IgG yield (Table 2).

[7] = target: T1, Human polyclonal immunoglobulin G (IgG); experiment: affinity chromatography of Cohn fraction II+III on peptide resin; binding buffer PBS + 0.13M NaCl
[8] = target: T1, Human polyclonal immunoglobulin G (IgG); experiment: affinity chromatography of Cohn fraction II+III on peptide resin; binding buffer PBS + 0.25M NaCl
Method: as §1

[9] = target: T1, Human polyclonal immunoglobulin G (IgG); experiment: affinity chromatography of Cohn fraction II+III on peptide resin; binding buffer PBS + 0M NaCl
[10] = target: T2, albumin; experiment: SDS-PAGE of fractions from peptide resin loaded with Cohn fraction II+III at different NaCl

Binder	IgG yield [1] [%]	IgG yield [2] [%]	binding result [3]	IgG yield [4] [%]	IgG yield [5] [%]	IgG yield [6] [%]	IgG yield [7] [%]	IgG yield [8] [%]	IgG yield [9] [%]	binding result [10]
B1	91	54	binds	78	93	93	–	–	–	–
B2	48	53	binds	49	52	42	–	–	–	–
B3	85	36	binds	72	95	95	85	85	90	–
B4	89	91	binds	92	90	90	–	–	–	–
B5	91	90	binds	91	90	90	90	91	89	–
B6	54	71	binds	76	78	78	–	–	–	–
B7	–	–	–	–	–	–	93	94	91	binds
